Results as given in patent US12031160B2, “Method for the production of glufosinate-ammonium” (ZHEJIANG UNIVERSITY OF TECHNOLOGY, priority 2018, dated 2024).

Tests used:
[1] = substrate: NC(=O)C1=CN([C@@H]2O[C@H](COP(=O)(O)OP(=O)(O)OC[C@H]3O[C@@H](n4cnc5c(N)ncnc54)[C@H](OP(=O)(O)O)[C@@H]3O)[C@@H](O)[C@H]2O)C=CC1; experiment: Kinetic parameters of purified mutant PPTGDH-G239K; assay type: biochemical, Pseudomonas moorei; settings: other: PPO 2-10 mM, NADPH 1-5 mM, pH 7.4, 35° C., double-reciprocal plot
Procedure: (§1) 1. […] The mutant proteins were purified by Ni-NTA column(1.6×10 cm, Bio-Rad, the USA), and the specific operations were carried out as follows: (1)equilibrate a Ni-NTA column with 5 column volumes of a binding buffer(pH 8.0, 50 mM sodium phosphate buffer containing 0.3 M NaCl) until the baseline is steady; (2)load the sample with a flow rate of 1 mL/min with the amount of the loading sample of 25-40 mg/mL, thereby attaching the target protein to the Ni-NTA column; (3)wash the column with 6 column volumes of buffer A (pH 8.0, 50 mM sodium phosphate buffer containing 0.3 M NaCl and 30 mM imidazole) at a flow rate of 1 mL/min until the baseline is steady; (4)wash the column with buffer B (pH 8.0, 50 mM sodium phosphate buffer containing 0.3 M NaCl and 500 mM imidazole) at a flow rate of 1 mL/min, collect the target protein and dialyze overnight in a pH 7.5, 20 mM phosphate buffer, thereby obtaining the pure glufosinate-ammonium dehydrogenase; and (5)wash the Ni-NTA column with 5 column volumes of a binding buffer(pH 8.0, 50 mM sodium phosphate buffer containing 0.3 M NaCl) until the baseline is steady, and store the Ni-NTA column in 5 column volumes of ultrapure water containing 20% ethanol.
(§2) According to sequential mechanism in glufosinate-ammonium dehydrogenase's catalytic reaction, vmax, Km^A, Km^B can be calculated by a double-reciprocal plot, the results were shown in Table 4.

[2] = substrate: CP(=O)(O)CCC(=O)C(=O)O; experiment: Kinetic parameters of purified mutant PPTGDH-G239K; assay type: biochemical, Pseudomonas moorei; settings: other: PPO 2-10 mM, NADPH 1-5 mM, pH 7.4, 35° C., double-reciprocal plot
Procedure: as §1, §2

B1: Pseudomonas moorei glufosinate-ammonium dehydrogenase E3 (SEQ ID NO: 6) variant PPTGDH-G239K (Pseudomonas moorei; G239K) (protein)
chain: MIESVESFLARLKKRDPDQPEFHQAVEEVLRSLWPFLEANPRYLTSGILERICEPERAIVFRVSWVDDQGKVQVNRGFRIQMNSAIGPYKGGLRFHPSVNLGVLKFLAFEQTFKNSLTSLPMGGGKGGSDFDPKGKSDAEVMRFCQAFMSELYRHIGADVDVPAGDIGVGAREIGFLFGQYKRLSNQFTSVLTGKGPSYGGSLIRPEATGFGCVYFAEEMLKRRGETVEGKRVAISGSKNVAQYAARKVMDLGGKVISLSDSEGTLYCESGLTEAQWQAVLELKNVQRGRISELAGRFGLEFLAGQRPWGLSCDIALPCATQNELDAEAARALLRNGCTCVAEGANMPTTLEAVDLFIEAGILFAPGKASNAGGVAVSGLEMSQNAMRLLWTGGEVDSKLHAIMQSIHHACVHYGEENGQVNYVKGANIAGFVKVADAMLAQGVV
B1 gave a Km [1] of 68 µM, a kcat/Km [1] of 499700 M⁻¹ s⁻¹ and a Km [2] of 2530 µM. The kcat [2] was 33.98 ± 1.55 s⁻¹ and the kcat/Km [2] was 13430 M⁻¹ s⁻¹.
